Reference: PMC3072757 (Journal of molecular biology, 2010)
Read-outs that look alike come from different tables or passages of the source.

Key:
SEC [1] = biological target: the molecule itself; test: SEC
SEC [2] = biological target: the molecule itself; test: SEC; remark: listed apart in the source

Protein	binding result (SEC [1])	binding result (SEC [2])
Recombinant wild-type human αB-crystallin (natural protein, UniProt P02511 1-175, looked up) MDIAIHHPWIRRPFFPFHSPSRLFDQFFGEHLLESDLFPTSTSLSPFYLRPPSFLRAPSWFDTGLSEMRLEKDRFSVNLDVKHFSPEELKVKVLGDVIEVHGKHEERQDEHGFISREFHRKYRIPADVDPLTITSSLSSDGVLTVNGPRKQVSGPERTIPITREEKPAVTAAPKK	binds	
W9F/W60F αB-Crys (natural protein, human, UniProt P02511 1-175, looked up) MDIAIHHPFIRRPFFPFHSPSRLFDQFFGEHLLESDLFPTSTSLSPFYLRPPSFLRAPSFFDTGLSEMRLEKDRFSVNLDVKHFSPEELKVKVLGDVIEVHGKHEERQDEHGFISREFHRKYRIPADVDPLTITSSLSSDGVLTVNGPRKQVSGPERTIPITREEKPAVTAAPKK		binds
